Assay results: patent publication US20250230253A1 (Memorial Sloan Kettering, published 2025)
Residue numbers refer to the chain shown, from its start.

B1: anti-CD40 antibody 10-K9 (antibody, V domains shown)
VH: EVQLVESGGDLVKPGGSLKLSCAASGFTFSSYGMSWVRQTPDKRLEWVATISSDGSHTYYPDSVKGRFTISRDIAKNTLYLQMSSLKSEDTAMYYCVRQGRYVPSFDVWGAGTTVTVSS
VL: DIVLTQSPATLSVTPGDSVSLSCRASQSIRNNLHWYQQKSHESPRLLIKDASQSISGTPSRFSGSGSGTDFTLSINSVETEDFGMYFCHQTNNWPFTFGSGTKLEIK
notes: Mouse hybridoma monoclonal antibody tested as hybridoma supernatant and detected with anti-mouse IgG-HRP
B2: anti-CD40 antibody 30-P15 (antibody, V domains shown)
VH: EVMLVESGGALVKPGGSLKLSCAASGFTFSNYAMSWVRQTPEKRLEWVATIGTSGSYTYYSDSVKGRFTISRDNARNTLYLQMTSLRSEDTAMYYCARRGYYNPTHAMDYWGQGTSVTVSS
VL: QAVVTQESALTTSPGETVTLTCRSSTGAVTTSNYANWVQEKPDHLFTGLIGGTNNRAPGVPARFSGSLIGDKAALTITGAQTEDEAIYFCALWYSNHLVFGGGTKLTVL
notes: as for B1
B3: anti-CD40 antibody 41-I22 (antibody, V domains shown)
VH: EVQLQQSGAVLVKPGASVRLSCTASGFNIKDTYIHWVKQRPEQGLEWIGKIDPANGNTKFDPKFQGKATIAADTSSNTAYLQLSSLTSEDTAVYYCARDYYGTIFPYWYFDVWGAGTTVTVSS
VL: QIVLTQSPAIMSASPGEKVTITCSASSSVSYMHWFQQKPGTSPKFWIYITSNLASGVPARFSGSGSGTSYSLTISRMEAEDAATYYCQQRSSYPLTFGAGTKLELK
notes: as for B1
B4: anti-CD40 antibody 41-E17 (antibody, V domains shown)
VH: DVQLVESGGGLVQPGGSRKLSCAASGFTFSTFGMHWVRQAPEKGLEWVAYISGGSSTIYYADTVKGRFTISRDNPKNTLFLQMTSLRSEDTAMYYCVRPYGSVHYAMDYWGQGTSVTVSS
VL: DIQMTQTTSSLSASLGDRVTISCRASQDINNYLNWYQQKPDGTVKLLIYYTSRFHSGVPSRFSGSGSGTDYSLTISNLEQEDIATYFCQQGNTLPWTFGGGTKLDIK
notes: as for B1
B5: anti-CD40 antibody 39-K17 (antibody, V domains shown)
VH: QVQLQQPGAELVKPGASVKLSCTASGYIFTNYWMNWVKQRPGRGLEWIGRIHPSDSESLYNQKFKSKAILTVDKSSSTAYIQLSSLTSEDSAVYYCARSPLTKVVTTDFWGQGTTLTVSS
VL: EIVLTQSPAIMPASPGEKVTMTCSASSSVNYMHWYQQKSGTSPKRWIYDTSKLASGVPVRFSGSGSGTSYSLTISSMEAEDAATYYCQQWSSNPLTFGGGTKLEIK
notes: as for B1
B6: anti-CD40 antibody 41-J9 (antibody, V domains shown)
VH: DVQLQESGPDLVKPSQSLSLTCTVTGYSITSDYSWHWIRQFPGNKLEWMGYIYYSGSTNYNPSLKSRISITRDTSKNQFFLQLNSVTSEDTATYYCARFYYGWSYFDYWGQGTSLTVSS
VL: B5 VL
notes: as for B1
B7: anti-CD40 antibody 12-O17 (antibody, V domains shown)
VH: QVQLQQSGAELMKPGASVKISCKATGYTFSTYWIEWVKQRPGHGLEWIGEILPGSGSTNYNENFKGKATFTADTSSNTAYMQLSSLTSEDSAVYFCARGGLYYYGGAMDYWGQGTSVTVSS
VL: DIVMSQSPSSLAVSVGEKVTMSCKSSQSLLYSGNQKNYLAWYQQKPGQSPKLLIYWASIRESGVPDRFTGSGSGTDFTLTISSVKAEDLAVYYCQQYYSYPYTFGGGTKVEIK
notes: as for B1
B8: anti-CD40 antibody 9-P1 (antibody, V domains shown)
VH: QVQLQQSGAELMKPGASVKISCKATGYTFSTYWIEWVKQRPGHGLEWIGEILPGSGSTNYNEKFRGKATFTADTSSNTAYMQLSSLTSEDSAVYYCARSYYTYDQGSWLAYWGQGTLVTVSA
VL: B7 VL with S22T, Y55N, I59T, F68L, T78S, V110L
notes: as for B1
B9: anti-CD40 antibody 26-I22 (antibody, V domains shown)
VH: QVQLQQPGAELVKPGASVKLSCKASGYTFINYWINWMRQRPGQGLEWIGNIYPGSSSTTYNEKFKSKAALTVDTSSSTAYMQLSSLTSDDSAVYFCARSVGYWYFDVWGAGTTVTVSS
VL: B7 VL with M21L, L30F, Y31F, Y38F, K51N, Y55F, I59T, Y102F, G106S, V110L
notes: as for B1
B10: anti-CD40 antibody 10-B8 (antibody, V domains shown)
VH: QVQLQQPGSVLVRPGASVKLSCKASGFTFATSWMHWAKERPGQGLEWIGQIHPNSGNTNYNEKFKGKATLTVDTSSSTAYVDLSSLTSEDSAVYYCARGADYAMDYWGQGTSVTVSS
VL: DVLMTQTPLSLPVSLGDQASISCRSSQSIVHSNGNTYLEWYLQKPGQSPKLLIYIVSNRFSGVPDRFSGSGSGTDFTLKISRVEAEDLGVYYCFQGSHVPWTFGGGTKLEIK
notes: as for B1

target: T1, mouse CD40 (mouse, UniProt P27512 20-193, limits assumed); assay: ELISA on recombinant mouse CD40 protein, hybridoma supernatant
T1 construct: Recombinant mouse CD40 protein for ELISA; The construct and tag are not described; also called mCD40
T1 sequence (looked up): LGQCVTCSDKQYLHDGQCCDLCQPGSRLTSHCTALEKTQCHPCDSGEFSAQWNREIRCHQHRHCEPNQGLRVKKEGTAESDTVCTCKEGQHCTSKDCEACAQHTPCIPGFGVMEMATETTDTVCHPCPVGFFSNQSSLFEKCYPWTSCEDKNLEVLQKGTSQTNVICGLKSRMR

Q: Does B1 bind?
A: no binding

Q: Does B2 bind?
A: no binding

Q: Does B3 bind?
A: no binding

Q: Does B4 bind?
A: no binding

Q: Does B5 bind?
A: no binding

Q: Does B6 bind?
A: no binding

Q: Does B7 bind?
A: no binding

target: T2, human CD40 (human, UniProt P25942 21-193); assay: ELISA of subcloned hybridoma supernatants on hCD40, anti-mouse IgG-HRP detection
T2 construct: Recombinant protein coated for ELISA; The primary screen used 'soluble, His-tagged human CD40 (full-length and IgC2)'; also called huCD40; hCD40; not shown: His tag
T2 sequence (P25942 21-193 limits assumed): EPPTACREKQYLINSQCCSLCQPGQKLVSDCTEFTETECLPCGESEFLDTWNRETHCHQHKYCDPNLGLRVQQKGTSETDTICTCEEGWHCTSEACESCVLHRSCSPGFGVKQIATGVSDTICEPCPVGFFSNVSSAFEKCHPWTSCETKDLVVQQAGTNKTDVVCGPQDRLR
Procedure: Next, the hybridomas were selected for subcloning to identify monoclonal antibodies against CD40. Briefly, cells were plated at a 1 cell per well density in 384-well plates, confirmed by microscopy, and expanded. After expansion, supernatants were screened by ELISA against hCD40. The mAbs were detected using anti-mouse IgG-conjugated to HRP.

Q: Does B8 bind?
A: binds

Q: Does B2 bind?
A: binds

Q: Does B3 bind?
A: binds

Q: Does B4 bind?
A: binds

Q: Does B5 bind?
A: binds

Q: Does B6 bind?
A: binds

Q: Does B9 bind?
A: binds

Q: Does B7 bind?
A: binds

target: T2, human CD40; assay: ELISA on recombinant human CD40 protein, hybridoma supernatant

Q: Does B1 bind?
A: binds

Q: Does B10 bind?
A: binds
